US20180224449A1

Target: biotinylated Opr86 extracellular loop synthetic peptide
Assay: solution biopanning on biotinylated Opr86 loop peptide in Bushnell-Haas pH 8.5 with 1% Jet-A, three rounds; share of clones

| Substance | % Abundance [%] |
| --- | --- |
| M13 phage displaying OPP5 (IITMKRR) (peptide) | 3 |
| M13 phage displaying OPP1 (PRIRKSH) (peptide) | 3 |
| M13 phage displaying OPP2 (MHNLNLL) (peptide) | 2 |
| M13 phage displaying OPP4 (LRPLMNR) (peptide) | 3 |
| M13 phage displaying OPP6 (RKKSRIR) (peptide) | 2 |
| M13 phage displaying OPP3 (LPSTIHR) (peptide) | 2 |

Target: biotinylated OprF1 synthetic peptide (P. aeruginosa)
Assay: pooled monoclonal phages pulled down on biotinylated OprF1 in Bushnell-Haas with 1% Jet-A; unamplified eluate, share of 30 sequenced clones

| Substance | relative percent abundance [%] |
| --- | --- |
| M13 phage displaying the PPKINIM peptide | 3 |
